Several values for one entry are separate records, joined by “and”; a condition that tells them apart may be missing. Equal entries are not always repeated.
B1: Chitosanase, P33665 (parent)
chain: MHSQHRTARIALAVVLTAIPASLATAGVGYASTQASTAVKAGAGLDDPHKKEIAMELVSSAENSSLDWKAQYKYIEDIGDGRGYTGGIIGFCSGTGDMLELVQHYTDLEPGNILAKYLPALKKVNGSASHSGLGTPFTKDWATAAKDTVFQQAQNDERDRVYFDPAVSQAKADGLRALGQFAYYDAIVMHGPGNDPTSFGGIRKTAMKKARTPAQGGDETTYLNAFLDARKAAMLTEAAHDDTSRVDTEQRVFLKAGNLDLNPPLKWKTYGDPYVINS

Variants of: B1
Conditions: Streptomyces sp. (strain N174); pH 7; 42.7 °C; Thermal; CD; sodium phosphate 50 mM; transition: 3; reversible: yes(79%); structure 1CHK; whole UniProt chain shown
In the case of MHSQHRTARIALAVVLTAIPASLATAGVGYASTQASTAVKAGAGLDDPHKKEIAMELVSSAENSSLDWKAQYKYIEDIGDGRGYTGGIIGFCSGTGDMLELVQHYTDLEPGNILAKYLPALKKVNGSASHSGLGTPFTKDWATAAKDTVFQQAQNDERDRVYFDPAVSQAKADGLRALGQFAYYDAIVMHGPGNDPTSFGGIRKTAMKKARTPAQGGDETTYLNAFLDARKAAMLTEAAHDDTSRVDTEQRVFLKAGNLDLNPPLKFKTYGDPYVINS [W267F], the “ddG of mutation (higher = less stable)” value is reported as 2.97 kcal/mol.

Same assay, conditions: Streptomyces sp. (strain N174); pH 7; 43.2 °C; Thermal; Fluorescence; sodium phosphate 50 mM; reversible: yes(81%); structure 1CHK; whole UniProt chain shown
In the case of MHSQHRTARIALAVVLTAIPASLATAGVGYASTQASTAVKAGAGLDDPHKKEIAMELVSSAENSSLDWKAQYKYIEDIGDGRGYTGGIIGFCSGTGDMLELVQHYTDLEPGNILAKYLPALKKVNGSASHSGLGTPFTKDWATAAKDTVFQQAQNDERDRVYFDPAVSQAKADGLRALGQFAYYDAIVMHGPGNDPTSFGGIRKTAMKKARTPAQGGDETTYLNAFLDARKAAMLTEAAHDDTSRVDTEQRVFLKAGNLDLNPPLKFKTYGDPYVINS [W267F], the “ddG of mutation (higher = less stable)” value is reported as 2.51 kcal/mol.

Same assay, conditions: Streptomyces sp. (strain N174); pH 7; 52.2 °C; Thermal; CD; sodium phosphate 50 mM; transition: 3; reversible: yes(79%); structure 1CHK; whole UniProt chain shown
With MHSQHRTARIALAVVLTAIPASLATAGVGYASTQASTAVKAGAGLDDPHKKEIAMELVSSAENSSLDWKAQYKYIEDIGDGRGYTGGIIGFCSGTGDMLELVQHYTDLEPGNILAKYLPALKKVNGSASHSGLGTPFTKDWATAAKDTVFQQAQNDERDRVYFDPAVSQAKADGLRALGQFAYYDAIVMHGPGNDPTSFGGIRKTAMKKARTPAQGGDETTYLNAFLDARKAAMLTEAAHDDTSRVDTEQRVFLKAGNLDLNPPLKFKTYGDPYVINS [W267F] the “ddG of mutation (higher = less stable)” value was 1.31 kcal/mol.

Same assay, conditions: Streptomyces sp. (strain N174); pH 7; Thermal; CD; sodium phosphate 50 mM; transition: 3; reversible: yes(79%); structure 1CHK; whole UniProt chain shown
In the case of MHSQHRTARIALAVVLTAIPASLATAGVGYASTQASTAVKAGAGLDDPHKKEIAMELVSSAENSSLDWKAQYKYIEDIGDGRGYTGGIIGFCSGTGDMLELVQHYTDLEPGNILAKYLPALKKVNGSASHSGLGTPFTKDWATAAKDTVFQQAQNDERDRVYFDPAVSQAKADGLRALGQFAYYDAIVMHGPGNDPTSFGGIRKTAMKKARTPAQGGDETTYLNAFLDARKAAMLTEAAHDDTSRVDTEQRVFLKAGNLDLNPPLKFKTYGDPYVINS [W267F], the “change of melting temperature, mutant - wild type (higher = more stable)” value (from here on “change of melting temperature, mutant”) is reported as -6.8 °C and -6.4 °C and the “unfolding enthalpy (van 't Hoff)” value is reported as 135 kcal/mol and 65 kcal/mol.

Same assay, conditions: Streptomyces sp. (strain N174); pH 7; Thermal; Fluorescence; sodium phosphate 50 mM; reversible: yes(81%); structure 1CHK; whole UniProt chain shown
With MHSQHRTARIALAVVLTAIPASLATAGVGYASTQASTAVKAGAGLDDPHKKEIAMELVSSAENSSLDWKAQYKYIEDIGDGRGYTGGIIGFCSGTGDMLELVQHYTDLEPGNILAKYLPALKKVNGSASHSGLGTPFTKDWATAAKDTVFQQAQNDERDRVYFDPAVSQAKADGLRALGQFAYYDAIVMHGPGNDPTSFGGIRKTAMKKARTPAQGGDETTYLNAFLDARKAAMLTEAAHDDTSRVDTEQRVFLKAGNLDLNPPLKFKTYGDPYVINS [W267F] the Tm was 37.3 °C, the “change of melting temperature, mutant” value was -5.9 °C and the “unfolding enthalpy (van 't Hoff)” value was 132 kcal/mol.

Same assay, conditions: Streptomyces sp. (strain N174); pH 7; 42.7 °C; Thermal; CD; sodium phosphate 50 mM; transition: 3; reversible: yes(77%); structure 1CHK; whole UniProt chain shown
In the case of MHSQHRTARIALAVVLTAIPASLATAGVGYASTQASTAVKAGAGLDDPHKKEIAMELVSSAENSSLDFKAQYKYIEDIGDGRGYTGGIIGFCSGTGDMLELVQHYTDLEPGNILAKYLPALKKVNGSASHSGLGTPFTKDWATAAKDTVFQQAQNDERDRVYFDPAVSQAKADGLRALGQFAYYDAIVMHGPGNDPTSFGGIRKTAMKKARTPAQGGDETTYLNAFLDARKAAMLTEAAHDDTSRVDTEQRVFLKAGNLDLNPPLKWKTYGDPYVINS [W68F], the “ddG of mutation (higher = less stable)” value is reported as 3.56 kcal/mol.

Same assay, conditions: Streptomyces sp. (strain N174); pH 7; 43.2 °C; Thermal; Fluorescence; sodium phosphate 50 mM; reversible: yes(75%); structure 1CHK; whole UniProt chain shown
With MHSQHRTARIALAVVLTAIPASLATAGVGYASTQASTAVKAGAGLDDPHKKEIAMELVSSAENSSLDFKAQYKYIEDIGDGRGYTGGIIGFCSGTGDMLELVQHYTDLEPGNILAKYLPALKKVNGSASHSGLGTPFTKDWATAAKDTVFQQAQNDERDRVYFDPAVSQAKADGLRALGQFAYYDAIVMHGPGNDPTSFGGIRKTAMKKARTPAQGGDETTYLNAFLDARKAAMLTEAAHDDTSRVDTEQRVFLKAGNLDLNPPLKWKTYGDPYVINS [W68F] the “ddG of mutation (higher = less stable)” value was 4.43 kcal/mol.

Same assay, conditions: Streptomyces sp. (strain N174); pH 7; 52.2 °C; Thermal; CD; sodium phosphate 50 mM; transition: 3; reversible: yes(77%); structure 1CHK; whole UniProt chain shown
With MHSQHRTARIALAVVLTAIPASLATAGVGYASTQASTAVKAGAGLDDPHKKEIAMELVSSAENSSLDFKAQYKYIEDIGDGRGYTGGIIGFCSGTGDMLELVQHYTDLEPGNILAKYLPALKKVNGSASHSGLGTPFTKDWATAAKDTVFQQAQNDERDRVYFDPAVSQAKADGLRALGQFAYYDAIVMHGPGNDPTSFGGIRKTAMKKARTPAQGGDETTYLNAFLDARKAAMLTEAAHDDTSRVDTEQRVFLKAGNLDLNPPLKWKTYGDPYVINS [W68F] the “ddG of mutation (higher = less stable)” value was 1.76 kcal/mol.

Same assay, conditions: Streptomyces sp. (strain N174); pH 7; Thermal; CD; sodium phosphate 50 mM; transition: 3; reversible: yes(77%); structure 1CHK; whole UniProt chain shown
With MHSQHRTARIALAVVLTAIPASLATAGVGYASTQASTAVKAGAGLDDPHKKEIAMELVSSAENSSLDFKAQYKYIEDIGDGRGYTGGIIGFCSGTGDMLELVQHYTDLEPGNILAKYLPALKKVNGSASHSGLGTPFTKDWATAAKDTVFQQAQNDERDRVYFDPAVSQAKADGLRALGQFAYYDAIVMHGPGNDPTSFGGIRKTAMKKARTPAQGGDETTYLNAFLDARKAAMLTEAAHDDTSRVDTEQRVFLKAGNLDLNPPLKWKTYGDPYVINS [W68F] the Tm was 45.2 °C, the “change of melting temperature, mutant” value was -7 °C and the “unfolding enthalpy (van 't Hoff)” value was 80 kcal/mol.

Same assay, conditions: Streptomyces sp. (strain N174); pH 7; Thermal; Fluorescence; sodium phosphate 50 mM; reversible: yes(75%); structure 1CHK; whole UniProt chain shown
In the case of MHSQHRTARIALAVVLTAIPASLATAGVGYASTQASTAVKAGAGLDDPHKKEIAMELVSSAENSSLDFKAQYKYIEDIGDGRGYTGGIIGFCSGTGDMLELVQHYTDLEPGNILAKYLPALKKVNGSASHSGLGTPFTKDWATAAKDTVFQQAQNDERDRVYFDPAVSQAKADGLRALGQFAYYDAIVMHGPGNDPTSFGGIRKTAMKKARTPAQGGDETTYLNAFLDARKAAMLTEAAHDDTSRVDTEQRVFLKAGNLDLNPPLKWKTYGDPYVINS [W68F], the Tm is reported as 36.2 °C, the “change of melting temperature, mutant” value is reported as -7 °C and the “unfolding enthalpy (van 't Hoff)” value is reported as 196 kcal/mol.

Reference: FireProtDB (doi:10.1016/s0167-4838(98)00243-x)
